Laboratory results taken from the Human Domainome abundance scans (Beltran et al. 2025).
± gives the uncertainty stated by the source.

assay: abundance fitness (aPCA) (normalised: wild type 0, dead -1); higher = more abundant; growth selection in yeast, the domain comes from the species named; conditions: Homo sapiens

| Substance | abundance fitness |
| --- | --- |
| Transcriptional activator Myb G163C, P10242 | -0.468 ± 0.093 |
| Transcriptional activator Myb G163D, P10242 | -0.356 ± 0.086 |
| Transcriptional activator Myb G163E, P10242 | -0.25 ± 0.088 |
| Transcriptional activator Myb G163F, P10242 | -0.89 ± 0.16 |
| Transcriptional activator Myb G163K, P10242 | -0.405 ± 0.11 |
| Transcriptional activator Myb G163L, P10242 | -0.581 ± 0.082 |
| Transcriptional activator Myb G163M, P10242 | -0.484 ± 0.12 |
| Transcriptional activator Myb G163P, P10242 | -0.19 ± 0.1 |
| Transcriptional activator Myb G163R, P10242 | -0.422 ± 0.059 |
| Transcriptional activator Myb G163S, P10242 | -0.406 ± 0.078 |
| Transcriptional activator Myb G163T, P10242 | -0.595 ± 0.11 |
| Transcriptional activator Myb G163V, P10242 | -0.537 ± 0.084 |
| Transcriptional activator Myb G163W, P10242 | -0.602 ± 0.084 |
| Transcriptional activator Myb G163Y, P10242 | -0.577 ± 0.46 |
| Transcriptional activator Myb G175A, P10242 | -0.085 ± 0.058 |
| Transcriptional activator Myb G175C, P10242 | -0.171 ± 0.1 |
| Transcriptional activator Myb G175D, P10242 | 0.021 ± 0.079 |
| Transcriptional activator Myb G175E, P10242 | 0.023 ± 0.079 |
| Transcriptional activator Myb G175F, P10242 | -0.308 ± 0.12 |
| Transcriptional activator Myb G175H, P10242 | 0.101 ± 0.17 |
| Transcriptional activator Myb G175I, P10242 | -0.961 ± 0.35 |
| Transcriptional activator Myb G175K, P10242 | -0.036 ± 0.095 |
| Transcriptional activator Myb G175L, P10242 | -0.102 ± 0.077 |
| Transcriptional activator Myb G175M, P10242 | -0.283 ± 0.098 |
| Transcriptional activator Myb G175N, P10242 | -0.197 ± 0.18 |
| Transcriptional activator Myb G175P, P10242 | -0.594 ± 0.11 |
| Transcriptional activator Myb G175Q, P10242 | -0.315 ± 0.12 |

| Substance | abundance fitness |
| --- | --- |
| Transcriptional activator Myb G175R, P10242 | -0.281 ± 0.053 |
| Transcriptional activator Myb G175S, P10242 | -0.13 ± 0.074 |
| Transcriptional activator Myb G175V, P10242 | -0.409 ± 0.066 |
| Transcriptional activator Myb G175W, P10242 | -0.168 ± 0.077 |
| Transcriptional activator Myb G175Y, P10242 | -0.256 ± 0.14 |
| Transcriptional activator Myb G197C, P10242 | 0.032 ± 0.098 |
| Transcriptional activator Myb G197D, P10242 | -0.09 ± 0.13 |
| Transcriptional activator Myb G197F, P10242 | -0.148 ± 0.39 |
| Transcriptional activator Myb G197H, P10242 | -0.395 ± 0.21 |
| Transcriptional activator Myb G197I, P10242 | -0.717 ± 0.24 |
| Transcriptional activator Myb G197K, P10242 | -0.124 ± 0.12 |
| Transcriptional activator Myb G197L, P10242 | -0.34 ± 0.083 |
| Transcriptional activator Myb G197M, P10242 | -0.334 ± 0.12 |
| Transcriptional activator Myb G197N, P10242 | 0.083 ± 0.16 |
| Transcriptional activator Myb G197P, P10242 | -0.13 ± 0.1 |
| Transcriptional activator Myb G197R, P10242 | -0.087 ± 0.06 |
| Transcriptional activator Myb G197S, P10242 | 0.01 ± 0.071 |
| Transcriptional activator Myb G197T, P10242 | -0.15 ± 0.092 |
| Transcriptional activator Myb G197W, P10242 | -0.229 ± 0.086 |
| Transcriptional activator Myb G197Y, P10242 | -0.265 ± 0.14 |
| Transcriptional activator Myb H159R, P10242 | -0.243 ± 0.18 |
| Transcriptional activator Myb H159Y, P10242 | -0.007 ± 0.12 |
| Transcriptional activator Myb H184A, P10242 | -0.732 ± 0.07 |
| Transcriptional activator Myb H184C, P10242 | -0.799 ± 0.084 |
| Transcriptional activator Myb H184D, P10242 | -0.82 ± 0.077 |
| Transcriptional activator Myb H184E, P10242 | -0.783 ± 0.1 |
| Transcriptional activator Myb H184F, P10242 | -0.488 ± 0.075 |
